For assay [1], the target named is T1, human CXCR4 (Homo sapiens, UniProt P61073). Kind of assay: SDF-1-induced calcium release in CHO-CXCR4 cells. It counts as cell-based. On the set-up: expressed in transfected cells. The settings on record: Mab 133 nM, SDF-1 100 nM. An excerpt: This functional assay was designed to monitor CXCR4 receptor signaling via stimulation of the phospholipase C pathway, inducing calcium liberation from intracellular stores from the endoplasmic reticulum.
CHO-K1 cells, stably and constitutively expressing human CXCR4 receptor were obtained upon transfection of naïve CHO-K1 cells (ATCC CCL-61) with a mammalian expression vector carrying the whole coding sequence of human CXCR4 receptor (RefSeq NM_003467). Cells were propagated in complete culture medium [DMEM-Ham's F12 supplemented with 5% fetal calf serum (FCS) and 500 μg/ml of geneticin]. Cells were plated in black 96MW plates at a density of 100,000 cells/well in appropriate culture medium. Cells were starved overnight before conducting the experiments. Cells are loaded with the fluorescent calcium dye (Fluo-4 No Wash, Invitrogen US) in loading buffer [HBSS 1×, HEPES 20 mM, Probenicid acid 25 mM] for 30 min. at 37° C. followed by 30 min. at 25° C. Stimulation by SDF-1 was performed by direct injection into each well. For antagonism experiments, 10 μl of Mab solution are added directly into the loading buffer at least 10 min. before SDF-1. Kinetic fluorescence measurements are performed on a multi-mode fluorescence microplate reader Mithras LB940 (Berthold) using the following settings: excitation at 485 nm, emission at 535 nm, excitation energy at 10000 arbitrary units. Fluorescence in each well is recorded during 0.1 second every second and for a time period of 20 sec. prior SDF-1 injection (basal signal). Then 20 μl of SDF-1 are injected and data recording follows for a time period of 2 min. Each experimental condition is performed in duplicate. Values for each well are first corrected by subtracting the basal fluorescence and the fluorescence emitted by a control well without cells. Relative data are expressed as a percentage of the maximal stimulation obtained by SDF-1 (100 nM).

Assay [2] has as its system HIV-1 X4 primary isolate 92UG024. Kind of assay: Single cycle neutralization assay in human PBMC, isolate 92UG024. The format is cell-based. Also on record: 92UG024 % inhibition of infected cells 90 / 92UG024 % inhibition of infected cells 80: unit not given here. The note with it: for 92UG024 % inhibition of infected cells 90: IC for 90% inhibition. The procedure:
(§1) This assay is performed in 36 h using primary isolates KON, MN and 92UG024 concentrated and diluted accordingly to allow the detection 2% infected CD4 T lymphocytes after 2 days of infection.
(§2) Twenty-five microliters of various dilutions of Mabs 515H7, c515H7 and 301aE5 were incubated for 1 h at 37° C. with 25 μl of virus. Human PBMC (25 μl) at 20×10^6 cells/ml were added to the Mab/virus mixture in a 96-well plate (U-bottom, Costar 3599) and cultured for 36 h in RPMI 1640 10% FCS and 20 U/ml IL-2 (R&D Systems, Minneapolis, Minn.).
(§3) After 2 days of culture, HIV-infected lymphocytes were detected by intracellular staining of viral p24 Ag. Cells were fixed and permeabilized using both Cytofix/Cytoperm and Perm/Wash kits (BD Biosciences) according to the manufacturer and stained with a fluorescent anti-p24 Mab (FITC- or PE-anti-p24, clone KC57; Beckman Coulter/Immunotech, Hialeah, Fla.) used at a 1/160 dilution in Perm/Wash solution added for 15 min at 4° C. After washing in PBS with 3% FBS, PBMC were diluted in 300 μl of PBS before flow cytometry analysis (LSRII; BD Biosciences) with DIVA software (BD Biosciences). The percentage of p24-positive cells in the different samples was determined by gating 20,000 events on a living cell population identified by forward- and side-scatter parameters. The living cell subsets were analyzed with the live/dead solution kit (Invitrogen). The p24 Ag-positive value was obtained after subtraction of background events in mock-infected cells.
The percent of neutralization was defined as the reduction of p24-positive cells compared with control infected wells with no Mab. […]

In assay [3] the test system is HIV-1 X4 primary isolate KON. Put plainly: Single cycle neutralization assay in human PBMC, isolate KON. The format is cell-based. The settings on record: IC for 80% inhibition.
In assay [4] the target is T1, human CXCR4. Put plainly: FACS binding to NIH3T3-hCXCR4 transfected cells. Also on record: expressed in transfected cells; host or cells: NIH3T3 (mouse fibroblasts). The settings on record: for binding to human CXCR4-NIH3T3 transfected cell line (in words): FACS; for NIH3T3-CXCR4 (MFI): Mab 10 μg/ml, Mean Fluorescence Intensity by FACS. The method, then: In this experiment, the specific binding to human CXCR4 (hCXCR4) of anti-CXCR4 Mabs 515H7 and 301aE5 was examined by FACS analysis.
(§4) NIH3T3 and NIH3T3-hCXCR4 transfected cells were incubated with 10 μg/ml of monoclonal antibodies 515H7 and 301aE5. The cells were then washed with 1% BSA/PBS/0.01% NaN3. Next, Alexa-labeled secondary antibodies were added to the cells and were allowed to incubate at 4° C. for 20 min. The cells were then washed again two times. Following the second wash, FACS analysis was performed.
(§5) NIH3T3-hCXCR4 transfected cells were incubated with a dose range of monoclonal antibody c515H7 from 0 μg/ml to 10 μg/ml. The cells were then washed with 1%BSA/PBS/0.01% NaN3. Next, Alexa-labeled secondary antibodies were added to the cells and were allowed to incubate at 4° C. for 20 min. The cells were then washed again two times. Following the second wash, FACS analysis was performed.
(§6) NIH3T3, NIH3T3-hCXCR4 transfected were incubated with 0 to 10 μg/mL of humanized Mabs 515H7 (hz515H7 VH1 D76N VL2, hz515H7 VH1 D76N VL2.1, hz515H7 VH1 D76N VL2.2, hz515H7 VH1 D76N VL2.3) for 20 min at 4° C. in the dark in 100 μl Facs buffer. After 3 washing in Facs buffer, cells were incubated with the secondary antibody, a goat anti-human Alexa 488 (dilution 1/500), for 20 minutes at 4° C. in the dark. After 3 washing in Facs buffer, propidium iodide was added in each well and only viable cells were analyzed by Facs. At least 5000 viable cells were assessed to evaluate the mean value of fluorescence intensity for each condition.

Another assay concerns NIH3T3 cells. Put plainly: FACS binding to parent NIH3T3 cells. The settings on record: for binding to parent NIH3T3 cells (in words): FACS; for NIH3T3 (MFI): Mab 10 μg/ml, Mean Fluorescence Intensity by FACS. The procedure: as §4, §5, §6
Assay [5] relates to HIV-1 X4 primary isolate MN. Put plainly: Single cycle neutralization assay in human PBMC, isolate MN. Also on record: MN % inhibition of infected cells 90 / MN % inhibition of infected cells 80: unit not given here. The settings on record: for MN % inhibition of infected cells 80: IC for 80% inhibition; for MN % inhibition of infected cells 80 / MN % inhibition of infected cells 90: human PBMC; for MN % inhibition of infected cells 90: IC for 90% inhibition. The format is cell-based. The method, then: as §1, §2, §3
The percent of neutralization was defined as the reduction of p24-positive cells compared with control infected wells with no Mab. The neutralizing titer was defined as the concentration of antibody (interpolated between successive dilutions performed in triplicate) that allows a 90% decrease in the percentage of infected cells.

Here are results for three molecules from patent publication US9090686B2, “Antibodies for the treatment of HIV” (Pierre Fabre Medicament, priority 2009, dated 2015).

Changes are numbered by the printed parent chain.

T1 sequence (P61073 whole entry): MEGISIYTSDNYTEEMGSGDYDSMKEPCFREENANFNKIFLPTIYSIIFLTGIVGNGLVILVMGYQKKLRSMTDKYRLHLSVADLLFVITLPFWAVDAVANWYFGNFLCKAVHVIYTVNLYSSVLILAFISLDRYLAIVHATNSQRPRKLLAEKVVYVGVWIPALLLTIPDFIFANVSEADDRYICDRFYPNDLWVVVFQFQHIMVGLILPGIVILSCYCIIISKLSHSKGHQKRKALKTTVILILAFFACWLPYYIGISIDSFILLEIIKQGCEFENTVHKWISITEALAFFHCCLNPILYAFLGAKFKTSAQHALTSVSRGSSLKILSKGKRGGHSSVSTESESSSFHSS

B1: 515H7: murine anti-CXCR4 monoclonal antibody; light chain variable domain SEQ ID No. 7, heavy chain variable domain SEQ ID No. 8 (antibody, listed as Mus musculus, V domains shown)
VH: EVNLVESGGGLVQPGGSLRLSCATSGFTFTDNYMSWVRQPPGKALEWLGFIRNKANGYTTDYSASVRGRFTISRDNSQSILYLQMNALRAEDSATYYCARDVGSNYFDYWGQGTTLTVSS
VL: DIVMSQSPSSLAVSAGEKVTMSCKSSQSLFNSRTRKNYLAWYQQKPGQSPKLLIYWASARDSGVPARFTGSGSETYFTLTISRVQAEDLAVYYCMQSFNLRTFGGGTKLEIK
For the molecule B1, the “inhibition of the SDF-1-induced calcium signal (in words)” value in the assay with human CXCR4 [1] was “strong inhibition”. In addition, the “inhibition of HIV-1 X4 92UG024 primary isolate replication in PBMC (in words)” value in assay [2] is recorded as “able to inhibit”. Also, the “92UG024 % inhibition of infected cells 90” value in assay [2] (human PBMC) is recorded as 10. The “KON % inhibition of infected cells 80” value in assay [3] stood at 8 µg/mL. Moreover, in the assay with human CXCR4 [4], the “binding to human CXCR4-NIH3T3 transfected cell line (in words)” value is given as “bind specifically” and the “NIH3T3-CXCR4 (MFI)” value is recorded as 2752. Moreover, in the assay with NIH3T3 cells, the “binding to parent NIH3T3 cells (in words)” value was “no recognition” and the “NIH3T3 (MFI)” value came out at 16. Also, in assay [5], the “inhibition of HIV-1 X4 MN primary isolate replication in PBMC (in words)” value is recorded as “able to inhibit”, the “MN % inhibition of infected cells 80” value was 1.5 and the “MN % inhibition of infected cells 90” value was 10.

B2: c515H7: chimeric antibody 515H7: murine variable domains fused to human Ckappa and IgG1/IgG2/IgG4 constant domains; isotype tested not stated (antibody, V domains shown)
VH: B1 VH
VL: B1 VL
For B2, the “inhibition of the SDF-1-induced calcium signal (in words)” value with human CXCR4 [1] was “strong inhibition”. Also, the “inhibition of HIV-1 X4 92UG024 primary isolate replication in PBMC (in words)” value in assay [2] is “able to inhibit”. Further, the “92UG024 % inhibition of infected cells 90” value in assay [2] (human PBMC) is 15. In addition, the “KON % inhibition of infected cells 80” value in assay [3] came to 10 µg/mL. In addition, the “binding to human CXCR4-NIH3T3 transfected cell line (in words)” value with human CXCR4 [4] is on record as “bound specifically”. Besides, the “binding to parent NIH3T3 cells (in words)” value in the assay on NIH3T3 cells was “No binding was detected”. For the same molecule, in assay [5], the “inhibition of HIV-1 X4 MN primary isolate replication in PBMC (in words)” value was “able to inhibit”, the “MN % inhibition of infected cells 80” value amounted to 1 and the “MN % inhibition of infected cells 90” value was determined as 15.

B3: 301aE5: murine anti-CXCR4 monoclonal antibody; light chain variable domain SEQ ID No. 34, heavy chain variable domain SEQ ID No. 35 (antibody, listed as Mus musculus, V domains shown)
VH: QVQLKESGPGLVAPSQSLSITCTVSGFSLTDYGVYWVRQPPGKGLEWLGMIWGDGTTDYNSALKSRLSISKDNSKSQVFLKMNTLQTDDTARYYCARGRQFGFDYWGQGTTLTVSS
VL: B1 VL with S22R, Y55F, A59I, D61E, A66D, E74G, Y76D, R83S, M95K, F98Y
In the case of B3, the “inhibition of the SDF-1-induced calcium signal (in words)” value with human CXCR4 [1] is recorded as “partial inhibition”. The “inhibition of HIV-1 X4 92UG024 primary isolate replication in PBMC (in words)” value in assay [2] was “able to inhibit”. Besides, the “92UG024 % inhibition of infected cells 80” value in assay [2] (IC for 80% inhibition, human PBMC) is reported as 150. For the same molecule, in assay [2] (human PBMC), the “92UG024 % inhibition of infected cells 90” value is reported as above 150. Also, the “KON % inhibition of infected cells 80” value in assay [3] was above 150 µg/mL. For the same molecule, in the assay with human CXCR4 [4], the “binding to human CXCR4-NIH3T3 transfected cell line (in words)” value is on record as “bind specifically” and the “NIH3T3-CXCR4 (MFI)” value was 1367. Further, in the assay on NIH3T3 cells, the “binding to parent NIH3T3 cells (in words)” value is given as “no recognition” and the “NIH3T3 (MFI)” value turned out to be 21. For the same molecule, in assay [5], the “inhibition of HIV-1 X4 MN primary isolate replication in PBMC (in words)” value is “able to inhibit”, the “MN % inhibition of infected cells 80” value was 150 and the “MN % inhibition of infected cells 90” value was above 150.
